This note sets out measurements from patent US20150376286A1 (Amgen, published 2015).

Experiment [1] concerns the target T1, human amylin AMY1 receptor (hCTR + hRAMP1) (human, UniProt P30988 25-474). Description: cell-based or functional assay.
Experiment [2] has as its target T2, human adrenomedullin receptor 2 (hCRLR + hRAMP3) (human, UniProt O60896 24-148). The experiment is described as follows: cell-based or functional assay.
In experiment [3] the target is T3, cynomolgus CGRP receptor (cynoCRLR + cynoRAMP1) (cynomolgus monkey).
T3 chain 1: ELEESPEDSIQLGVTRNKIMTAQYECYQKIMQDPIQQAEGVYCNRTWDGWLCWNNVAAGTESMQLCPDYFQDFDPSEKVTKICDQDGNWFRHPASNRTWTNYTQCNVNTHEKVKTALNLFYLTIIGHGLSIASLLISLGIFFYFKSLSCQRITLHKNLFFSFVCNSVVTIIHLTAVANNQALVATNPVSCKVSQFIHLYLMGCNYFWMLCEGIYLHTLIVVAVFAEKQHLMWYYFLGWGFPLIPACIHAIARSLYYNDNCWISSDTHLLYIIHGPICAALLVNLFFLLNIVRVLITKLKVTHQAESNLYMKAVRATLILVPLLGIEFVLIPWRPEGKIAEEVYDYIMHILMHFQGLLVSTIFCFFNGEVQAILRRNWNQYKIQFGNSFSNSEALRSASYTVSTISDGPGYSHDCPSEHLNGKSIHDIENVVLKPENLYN
T3 chain 2: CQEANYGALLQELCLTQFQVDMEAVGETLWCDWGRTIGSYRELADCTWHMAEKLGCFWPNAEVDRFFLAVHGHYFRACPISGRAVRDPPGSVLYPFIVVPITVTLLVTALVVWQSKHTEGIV
The experiment is described as follows: cell-based or functional assay.

The target of experiment [4] is T4, human adrenomedullin receptor 1 (hCRLR + hRAMP2) (human, UniProt O60895 43-175). Description: cell-based or functional assay.
Experiment [5] addresses T5, human CGRP receptor (CRLR + RAMP1) (human, UniProt Q16602 23-461; O60894 27-148).
T5 construct: also called hCGRP R; huCGRP R
The experiment is described as follows: immunohistochemistry, CGRP/CHO cells, staining intensity (visual score). The method, then:
(§1) 2-4×10⁶ cells were injected per colla plug (Integra LifeSciences Co., Plainsboro, N.J.). Colla plugs were embedded in OCT medium (Sakura Finetek Inc., Torrance, Calif.), frozen at −20° C. and cut into 20 μm sections using a cryostat. Sections were fixed with 4% paraformaldehyde for 1 hour at room temperature (RT) and subsequently washed in phosphate-buffered saline (PBS). Endogenous peroxidase was blocked with 3% H₂O₂/PBS for 15 min and sections were incubated in blocking solution (PBS with 3% normal goat serum (Vector Labs, Burlingame, Calif.) and 0.3% triton X-100) for 1 hour. […] Sections were cleared with xylene and cover slipped with Permount (Fisher Chemicals, Fair Lawn, N.J.). Immunoreactivity was analyzed using a Nikon E-800 microscope and associated software (Nikon, Melville, N.Y.).

For experiment [6], the target named is T4, human adrenomedullin receptor 1 (hCRLR …). The experiment is described as follows: immunohistochemistry, HEK cells expressing recombinant human adrenomedullin receptor 1 (CRLR+RAMP2), staining intensity (visual score); the text says no staining was observed. How it is done:
as §1

The target in experiment [7] is T1, human amylin AMY1 receptor (hCTR + …). Description: immunohistochemistry, MCF-7 cells endogenously expressing amylin receptors, staining intensity (visual score); the text says no staining was observed. The method, then: as §1
The target in experiment [8] is T6, chimeric CGRP receptor: CRLR chimera #1 (L24 to Q33) + RAMP1 wt (human/rat chimera; human, UniProt Q16602 1-461; O60894 27-148).
T6 construct: also called CRLR L24-Q33+RAMP wt
The experiment is described as follows: FACS on transfected 293-6E cells. The method, then:
Cells were harvested after 72 hr, washed with PBS+0.5% BSA, and counted. Each transfected cell line was resuspended at a dilution of 5×10⁵ cells per 100 μl PBS/BSA. 100 μl of cell suspension was aliquot per well in a 96-well round-bottom plate (Falcon). The cells were pelleted at 1200 rpm for 5 min. […] Cells were incubated on ice for 1 hr. and then washed twice with PBS/BSA. […] Cells were incubated on ice in the dark for 1 hr. and then washed twice with PBS/BSA. Cells were resuspended in 200 μl PBS/BSA and analyzed using a FACS Calibur.

The target of experiment [9] is T2, human adrenomedullin receptor 2 (hCRLR …). The experiment is described as follows: immunohistochemistry, CHO cells expressing recombinant human adrenomedullin receptor 2 (CRLR+RAMP3), staining intensity (visual score); the text says no staining was observed. The method, then:
as §1

T1 sequence (P30988 25-474): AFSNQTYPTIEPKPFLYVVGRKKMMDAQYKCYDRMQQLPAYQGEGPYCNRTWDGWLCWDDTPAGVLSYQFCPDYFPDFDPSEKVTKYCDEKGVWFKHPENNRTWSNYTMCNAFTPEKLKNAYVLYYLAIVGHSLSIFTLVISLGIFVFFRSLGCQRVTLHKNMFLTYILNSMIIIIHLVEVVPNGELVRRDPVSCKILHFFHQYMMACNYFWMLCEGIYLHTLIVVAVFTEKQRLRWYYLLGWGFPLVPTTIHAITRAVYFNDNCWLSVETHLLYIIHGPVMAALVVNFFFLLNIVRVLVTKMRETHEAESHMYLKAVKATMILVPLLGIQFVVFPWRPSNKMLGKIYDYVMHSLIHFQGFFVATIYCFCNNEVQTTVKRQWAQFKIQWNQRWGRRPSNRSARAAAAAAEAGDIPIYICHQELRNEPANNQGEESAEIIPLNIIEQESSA
T2 sequence (O60896 24-148): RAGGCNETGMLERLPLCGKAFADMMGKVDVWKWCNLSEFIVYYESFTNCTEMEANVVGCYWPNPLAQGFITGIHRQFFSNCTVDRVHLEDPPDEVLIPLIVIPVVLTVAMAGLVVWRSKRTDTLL

B1: 32H7 (antibody, human IgG2, kappa, V domains shown)
VH: QVQLVESGGGVVQPGRSLRLSCAASGFTFSSYGMHWVRQAPGKGLEWVAVIWYDGSNKYYADSVKGRFIISRDKSKNTLYLQMNSLRAEDTAVYYCARAGGIAAAGLYYYYGMDVWGQGTTVTVSS
VL: EIVLTQSPGTLSLSPGERATLSCRASQSVSSGYLTWYQQKPGQAPRLLIYGASSRATGIPDRFSGSGSGTDFTLTISRLEPEDFAVYYCQQYGNSLCRFGQGTKLEIKR
notes: also called 32H7.1G
As for B1, the “cAMP assay IC50” value in experiment [1] was > 1000 nM; in [2], > 1000 nM; in [3] it was 1.93 nM; in [4], > 1000 nM. The binding result is “binds” in [5]; “no binding” in experiment [6]; “no binding” in experiment [7]; “binds” in [8]; “no binding” in experiment [9].
